Columns and labels:
[1] = target: invertase activity in the soluble fraction of a leaf extract of a wild type plant; experiment: cell-based or functional assay
[2] = target: invertase activity in the cell wall fraction of wild type tobacco leaves; experiment: cell-based or functional assay

An invertase activity in mixed-extract assay, percent of the added value of the extracts incubated separately (5 mM sucrose, pH 4.5) [1] of 86% was found for “Arabidopsis thaliana cell wall invertase inhibitor AtC/VIF2 (At5g46940)” in this work.
An invertase activity in mixed-extract assay, percent of the added value of the extracts incubated separately (5 mM sucrose, pH 4.5) [1] of 79% was found for “Arabidopsis thaliana vacuolar invertase inhibitor AtC/VIF1 (At1g47960) (from UniProt F4HWQ8 24-205)” in this work.
An invertase activity in mixed-extract assay, percent of the added value (1 mM sucrose; concentrated cell wall fraction of transgenic leaves) [2] of 58% and an invertase activity in mixed-extract assay, percent of the added value (5 mM sucrose; concentrated cell wall fraction of infiltrated transgenic leaves) [2] of 70% were found for “tobacco apoplasmic invertase inhibitor (Greiner et al., 1998)” in this work.
